# Test results published in US20220177587A1, “METHODS AND USES OF VARIANT CD80 FUSION PROTEINS AND RELATED CONSTRUCTS” (Alpine Immune Sciences, Inc., priority 2018, published 2022).
# Biological target: CD28 (Homo sapiens, UniProt P10747)
# Assay: Jurkat/IL2 reporter assay: blockade of CD28 costimulation (plate-bound anti-CD3/CD86-Fc)
# Format: cell-based
# Parameters: host or cells: Jurkat cells expressing an IL-2-luciferase reporter
# Details: Table E5; protein diluted to 40 nM before mixing with cells; 5 hours
# Experimental: The day before the assay, the assay plate was prepared. […] The plate was incubated overnight at 4° C. to allow the antibody and CD86-Fc protein to adhere to the surface of the plate. The next day, the wells of the assay plate were washed twice with 150 μL PBS prior to the assay.
# Jurkat effector cells expressing IL-2-luciferase reporter were counted and resuspended in assay buffer to a concentration of 2×10^6 cells/mL. 60 μL of the Jurkat cell suspension were then added to the wells containing the CD80-Fc fusion molecules or controls. The cells and CD80 proteins were incubated at room temperature for 15 minutes and then 100 μL of the cell/CD80 protein mixture were transferred/well of the prepared anti-CD3/CD86-Fc assay plate.
# The assay plate was briefly spun down (10 seconds at 1200 RPM) and incubated at 37° C. for 5 hours. After the 5 hour incubation, the plate was removed and equilibrated to room temperature for 15 minutes. 100 μL of Bio-Glo (Promega) were added/well of the assay plate, which was then placed on an orbital shaker for 10 minutes. Luminescence was measured with a 1 second per well integration time using a BioTek Cytation 3 luminometer.
row,Molecule,Average Relative Luminescence Units
1,"A71D: variant CD80 IgV-Fc, IgV SEQ ID NO:170 (protein) VIHVTKEVKEVATLSCGHNVSVEELAQTRIYWQKEKKMVLTMMSGDMNIWPEYKNRTIFDITNNLSIVILDLRPSDEGTYECVVLKYEKDAFKREHLAEVTLSVKAD",999 Relative Luminescence Units
2,"V20I/M47V/A71D: variant CD80 IgV-Fc, IgV SEQ ID NO:191 (protein) VIHVTKEVKEVATLSCGHNISVEELAQTRIYWQKEKKMVLTMMSGDVNIWPEYKNRTIFDITNNLSIVILDLRPSDEGTYECVVLKYEKDAFKREHLAEVTLSVKAD",360 Relative Luminescence Units
3,"E35D/I57I/L70Q/A71D: variant CD80 IgV-Fc, IgV SEQ ID NO:185 (protein) VIHVTKEVKEVATLSCGHNVSVEELAQTRIYWQKDKKMVLTMMSGDMNIWPEYKNRIIFDITNNLSIVIQDLRPSDEGTYECVVLKYEKDAFKREHLAEVTLSVKAD",280 Relative Luminescence Units
4,"M42I/I61V/A71D: variant CD80 IgV-Fc, IgV SEQ ID NO:187 (protein) VIHVTKEVKEVATLSCGHNVSVEELAQTRIYWQKEKKMVLTIMSGDMNIWPEYKNRTIFDVTNNLSIVILDLRPSDEGTYECVVLKYEKDAFKREHLAEVTLSVKAD",2549 Relative Luminescence Units
5,"K34E/T41A/L72V: variant CD80 IgV-Fc, IgV SEQ ID NO:174 (protein) VIHVTKEVKEVATLSCGHNVSVEELAQTRIYWQEEKKMVLAMMSGDMNIWPEYKNRTIFDITNNLSIVILAVRPSDEGTYECVVLKYEKDAFKREHLAEVTLSVKAD",4225 Relative Luminescence Units
6,"Q27H/M43I/A71D/R73S: variant CD80 IgV-Fc, IgV SEQ ID NO:183 (protein) VIHVTKEVKEVATLSCGHNVSVEELAHTRIYWQKEKKMVLTMISGDMNIWPEYKNRTIFDITNNLSIVILDLSPSDEGTYECVVLKYEKDAFKREHLAEVTLSVKAD",1891 Relative Luminescence Units
7,"M47V/N48H: variant CD80 IgV-Fc, IgV SEQ ID NO:180 (protein) VIHVTKEVKEVATLSCGHNVSVEELAQTRIYWQKEKKMVLTMMSGDVHIWPEYKNRTIFDITNNLSIVILALRPSDEGTYECVVLKYEKDAFKREHLAEVTLSVKAD",2656 Relative Luminescence Units
8,"E81K/A91S: variant CD80 IgV-Fc, IgV SEQ ID NO:172 (protein) VIHVTKEVKEVATLSCGHNVSVEELAQTRIYWQKEKKMVLTMMSGDMNIWPEYKNRTIFDITNNLSIVILALRPSDEGTYKCVVLKYEKDSFKREHLAEVTLSVKAD",4038 Relative Luminescence Units
9,"E35D/A71D/L72V: variant CD80 IgV-Fc, IgV SEQ ID NO:200 (protein) VIHVTKEVKEVATLSCGHNVSVEELAQTRIYWQKDKKMVLTMMSGDMNIWPEYKNRTIFDITNNLSIVILDVRPSDEGTYECVVLKYEKDAFKREHLAEVTLSVKAD",1152 Relative Luminescence Units
10,"A26P/E35D/M43I/L85Q/E88D: variant CD80 IgV-Fc, IgV SEQ ID NO:202 (protein) VIHVTKEVKEVATLSCGHNVSVEELPQTRIYWQKDKKMVLTMISGDMNIWPEYKNRTIFDITNNLSIVILALRPSDEGTYECVVQKYDKDAFKREHLAEVTLSVKAD",4078 Relative Luminescence Units
11,"V20I/M47V/I57I/V84I: variant CD80 IgV-Fc, IgV SEQ ID NO:190 (protein) VIHVTKEVKEVATLSCGHNISVEELAQTRIYWQKEKKMVLTMMSGDVNIWPEYKNRIIFDITNNLSIVILALRPSDEGTYECVILKYEKDAFKREHLAEVTLSVKAD",1870 Relative Luminescence Units
12,"M47I/E88D: variant CD80 IgV-Fc, IgV SEQ ID NO:186 (protein) VIHVTKEVKEVATLSCGHNVSVEELAQTRIYWQKEKKMVLTMMSGDINIWPEYKNRTIFDITNNLSIVILALRPSDEGTYECVVLKYDKDAFKREHLAEVTLSVKAD",2178 Relative Luminescence Units
13,"V22L/E35G/A71D/L72P: variant CD80 IgV-Fc, IgV SEQ ID NO:193 (protein) VIHVTKEVKEVATLSCGHNVSLEELAQTRIYWQKGKKMVLTMMSGDMNIWPEYKNRTIFDITNNLSIVILDPRPSDEGTYECVVLKYEKDAFKREHLAEVTLSVKAD",2334 Relative Luminescence Units
14,"Q27L/E35D/M47I/T57I/L70Q/E88D: variant CD80 IgV-Fc, IgV SEQ ID NO:204 (protein) VIHVTKEVKEVATLSCGHNVSVEELALTRIYWQKDKKMVLTMMSGDINIWPEYKNRIIFDITNNLSIVIQALRPSDEGTYECVVLKYDKDAFKREHLAEVTLSVKAD",1180 Relative Luminescence Units
15,"M47L/V68A: variant CD80 IgV-Fc, IgV SEQ ID NO:181 (protein) VIHVTKEVKEVATLSCGHNVSVEELAQTRIYWQKEKKMVLTMMSGDLNIWPEYKNRTIFDITNNLSIAILALRPSDEGTYECVVLKYEKDAFKREHLAEVTLSVKAD",5445 Relative Luminescence Units
16,"K36R/G78A: variant CD80 IgV-Fc, IgV SEQ ID NO:178 (protein) VIHVTKEVKEVATLSCGHNVSVEELAQTRIYWQKERKMVLTMMSGDMNIWPEYKNRTIFDITNNLSIVILALRPSDEATYECVVLKYEKDAFKREHLAEVTLSVKAD",2597 Relative Luminescence Units
17,"Q33E/T41A: variant CD80 IgV-Fc, IgV SEQ ID NO:179 (protein) VIHVTKEVKEVATLSCGHNVSVEELAQTRIYWEKEKKMVLAMMSGDMNIWPEYKNRTIFDITNNLSIVILALRPSDEGTYECVVLKYEKDAFKREHLAEVTLSVKAD",4220 Relative Luminescence Units
18,"H18Y/M47I/T57I/A71G: variant CD80 IgV-Fc, IgV SEQ ID NO:189 (protein) VIHVTKEVKEVATLSCGYNVSVEELAQTRIYWQKEKKMVLTMMSGDINIWPEYKNRIIFDITNNLSIVILGLRPSDEGTYECVVLKYEKDAFKREHLAEVTLSVKAD",924 Relative Luminescence Units
19,"T41S/A71D/V84A: variant CD80 IgV-Fc, IgV SEQ ID NO:175 (protein) VIHVTKEVKEVATLSCGHNVSVEELAQTRIYWQKEKKMVLSMMSGDMNIWPEYKNRTIFDITNNLSIVILDLRPSDEGTYECVALKYEKDAFKREHLAEVTLSVKAD",2685 Relative Luminescence Units
20,"T13R/M42V/M47I/A71D: variant CD80 IgV-Fc, IgV SEQ ID NO:197 (protein) VIHVTKEVKEVARLSCGHNVSVEELAQTRIYWQKEKKMVLTVMSGDINIWPEYKNRTIFDITNNLSIVILDLRPSDEGTYECVVLKYEKDAFKREHLAEVTLSVKAD",759 Relative Luminescence Units
21,"E35D/I67L/A71D: variant CD80 IgV-Fc, IgV SEQ ID NO:195 (protein) VIHVTKEVKEVATLSCGHNVSVEELAQTRIYWQKDKKMVLTMMSGDMNIWPEYKNRTIFDITNNLSLVILDLRPSDEGTYECVVLKYEKDAFKREHLAEVTLSVKAD",1223 Relative Luminescence Units
22,"S44P/A71D: variant CD80 IgV-Fc, IgV SEQ ID NO:182 (protein) VIHVTKEVKEVATLSCGHNVSVEELAQTRIYWQKEKKMVLTMMPGDMNIWPEYKNRTIFDITNNLSIVILDLRPSDEGTYECVVLKYEKDAFKREHLAEVTLSVKAD",2848 Relative Luminescence Units

# Same assay, conditions: Table E5; protein diluted to 40 nM before mixing with cells; 5 hours; SEQ ID NO 176
row,Molecule,Average Relative Luminescence Units
1,"E35D/A71D: variant CD80 IgV-Fc, listed twice: IgV SEQ ID NO:176 (Table E1) and 194 (Table E2) (protein) VIHVTKEVKEVATLSCGHNVSVEELAQTRIYWQKDKKMVLTMMSGDMNIWPEYKNRTIFDITNNLSIVILDLRPSDEGTYECVVLKYEKDAFKREHLAEVTLSVKAD",1461 Relative Luminescence Units
